Measurements reported in the supplement of paper PMC9170038.

Tested on: MS2 coat protein
Experiment: apparent KD of MS2 coat protein; designed switch direction (-1 OFF switch, 1 ON switch): -1; higher = weaker reporter binding
Procedure, shortened: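 Normalised cluster fluorescence was curve-fitted, and each design's median over clusters is its apparent KD. Before this, SNAP-549-labelled MS2 coat protein was titrated from 0.7 or 1.5 nM, doubling to 3 µM, over RNA switches transcribed on Illumina chips by stalled E. coli RNA polymerase. Titrations had no input, 200 uM small-molecule ligand, or an oligonucleotide input, and steps lasted 0.8–1.5 h (lowest) to 10–20 min (highest).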

[1] = input ligand: microRNA oligo, concentration not stated
[2] = Eterna round: R95, input ligand: microRNA oligo, concentration not stated
[3] = Eterna round: R95, input ligand: FMN 200 uM
[4] = Eterna round: R95, input ligand: none

Sequence	apparent KD of MS2 coat protein (input ligand: FMN 200 uM) [µM]	apparent KD of MS2 coat protein [1] [µM]	apparent KD of MS2 coat protein (input ligand: none) [µM]	apparent KD of MS2 coat protein [2] [µM]	apparent KD of MS2 coat protein [3] [µM]	apparent KD of MS2 coat protein [4] [µM]
CCAGAGAGCGAAGGAUAUUCUGUUCAAUGGGUCGACCUAGACAUGAGGAUCACCCAUGUCGCCCGGGAGAAGGUCGCAAGGAUC [Eternabot solution 18] (Eterna round: R96, puzzle: Exclusion NG 2)	0.0187	0.0133	0.0184			
CCAGCGUGUGUGAGGAUAUGCUGGUCCUUGGAUCAGCAGAAGGCACAUGAGGAUCACCCAUGUGAGAGCGUUGG [JL bmx4 3.36] (puzzle: Brourd's mod of Exclusion 4)				0.0207		
CCAGGCAGUGUGAGGAUAUGCUGGUGCAUACAUCAGCAGAAGGCACAUGAGGAUCACCCAUGUGAAGAGCUUGG [Mat - Exclusion 4 - JL Mod - D98] (puzzle: Brourd's mod of Exclusion 4)				0.0169	0.179	0.0275
CCAGUACGAGGAUAUACAUGAGGAUCACCCAUGUAAAUUGCCACGUCUUGGACGUCAUGUAGAAGGCGUUGGAA [EX3 C.1] (Eterna round: R97, puzzle: Exclusion 3)	0.0152		0.0143			
CCAUAUAACACAGGAUAUCAUCGCAACUGACGUUGAGAAGGGUGACAUGAGGAUCACCCAUGUGAUUUCUCAAUAUUAUACAUC [Prohibition 81 - Jieux - Exclusion NG 1] (Eterna round: R96, puzzle: Exclusion NG 1)	1.04	0.661	1.11			
CCAUAUAGGAGAGGAUAUACGCACCACUAACUAGUAGAAGGCUCACAUGAGGAUCACCCAUGUGAUUUCUCAAUAUUAUACAUC [Prohibition 73 - Jieux - Exclusion NG 1] (Eterna round: R96, puzzle: Exclusion NG 1)	0.0503	0.0256	0.0348			
CCAUCCAGUGUGAGGAUAUGCUGGUCCUUGGAUCAGCAGAAGGCACAUGAGGAUCACCCAUGUGAAUAGGAUGG [Mat - Exclusion 4 - JL Mod - D85] (puzzle: Brourd's mod of Exclusion 4)				0.0189	0.153	0.0241
CCAUCGUGUGUGAGGAUAUGCUGGUCCUUGGAUCAGCAGAAGGCACAUGAGGAUCACCCAUGUGAAAACGGUGG [Mat - Exclusion 4 - JL Mod - D86] (puzzle: Brourd's mod of Exclusion 4)				0.0223	0.067	0.0239
CCAUCGUGUGUGAGGAUAUGCUGGUCCUUGGAUCAGCAGAAGGCACAUGAGGAUCACCCAUGUGAAGACGGUGG [JL bmx4 3.22] (puzzle: Brourd's mod of Exclusion 4)				0.0174	0.0487	0.0242
CCAUCUCUAGUAGGAUAUGUCGGAUAUGUUGUUGAGGUUCACCCAACGACGUCAAUGACAGAAGGACAGAAGGACUCUCGAUGC [pwkr exNG2 2xFMN 1xF5.6] (Eterna round: R96, puzzle: Exclusion NG 2)	0.114	0.463	0.183			
CCAUGUCCAGAGGAUAUGUAGCGGAUAACCGCAACAGAAGGCUGGACAUGAGGAUCACCCAUGUGCGCCUUCCA [Vege] (Eterna round: R97, puzzle: Exclusion 6)	0.313		0.534			
CCAUUCAGAGGAUAUGCGCAUAAAUAAAACUUUUUUUUUUAACAUGAGGAUCACCCAUGUAGAAGGCUGUAACC [Ex2 #45] (Eterna round: R97, puzzle: Exclusion 2)	0.0272		0.0267			
CCCAGUUAGGAAGGAUAUUGUACAUGAGGAUCACCCAUGUAAUAAAUGAGGAUCUCGGGUGUCUACAAGAAGGUCCGGAUAGGC [Ostracism 12 - Jieux - Exclusion NG 2] (Eterna round: R96, puzzle: Exclusion NG 2)	0.104	0.0387	0.0464			
CCCGCAGGCUUUUUGCUCGACAUGAGGAUCACCCAUGUUGUAUGGGUUGUGUGUGUGUGGUGCAUAUAUAUGGUCCU [-25.6, -50.1 kcal, A 16%] (Eterna round: R97, puzzle: Sensor, turn-off variant 1)	0.313		0.469			
CCCGCAGGUUUUUUGCUCGACAUGAGGAUCACCCAUGUUGCGUGGGUUGUGUGUGUGCGGUGUAUAUAUAUGGUCCU [-24.5, -48 kcal, A 14%] (Eterna round: R97, puzzle: Sensor, turn-off variant 1)	0.305		0.371			
CCCGCGGGCGCAGGAUAUACAUGAGGAUCACCCAUGUGCCGCGCAAGCGGCAGAGCGGACAACGGGUAGAAGGGCGCCCGCGGG [first try] (Eterna round: R96, puzzle: Exclusion NG 2)	0.875	0.202	0.492			

Sequence	apparent KD of MS2 coat protein (input ligand: FMN 200 uM) [µM]	apparent KD of MS2 coat protein [1] [µM]	apparent KD of MS2 coat protein (input ligand: none) [µM]	apparent KD of MS2 coat protein [2] [µM]	apparent KD of MS2 coat protein [3] [µM]	apparent KD of MS2 coat protein [4] [µM]
CCCGUGUGAGGAUAUCGUUCACUUGGCGAAAGUCGAGUGGACGAGAAGGUACAUGAGGAUCACCCAUGUGCGGG [-36.1, -35.4 kcal, A 24%] (Eterna round: R97, puzzle: Exclusion 4)	0.155		0.134			
CCCGUGUUAGGAUAUACGGCACACCUGCCAGCAGGUGUAUAGUAGAAGGAACAUGAGGAUCACCCAUGUAUAGC [Rizausma] (puzzle: Exclusion 4)				0.0346		
CCCUCAAGCGAGGAUAUAAAUGCGCAUUCGCGGUUAGAAGGCGCUACAUGAGGAUCACCCAUGUAAUUAAAUGG [jl-ex6-4.51 ViennaUCT mod] (Eterna round: R97, puzzle: Exclusion 6)	0.128		0.0526			
CCCUCACAUGAGGAUCACCCAUGUCAGGAUAUCUCAGUACGUCCACACGGACGCACCAAGAGAAGGGACAAAGC [Veara] (Eterna round: R97, puzzle: Exclusion 1)	0.0322		0.02			
CCCUCACAUGAGGAUCACCCAUGUCAGGAUAUGCGCGGCCAAAAGGGCUGCUAAGGCAGCAGAAGGGACGUGAA [Eninored] (puzzle: Exclusion 1)				0.0144		
CCCUCACAUGAGGAUCACCCAUGUCAGGAUAUUCGAGGCGCAAAUGCGCCAAAUGCAGGAAGAAGGGACGUGCC [Isqubemaor] (puzzle: Exclusion 1)				0.014		
CCGAAUAAGCAGGAUAUCGUAUCGGAAACGAUACGAGAAGGGUUAACAUGAGGAUCACCCAUGUUCCUUAACGG [Fiskers Ex 6 - 17] (puzzle: Exclusion 6)				0.0174		
CCGACCCGAGGAUAUUGUACUGCUGACAUGAGGAUCACCCAUGUAUGUUAACUCGGCCGACGAGAAGGCGGCGACA [BotMod 3 - Jieux - Exclusion 5] (Eterna round: R97, puzzle: Exclusion 5)	0.0184		0.0221			
CCGAGGAAGCGGUCCUAUGACAUGAGGAUCACCCAUGUACCUCGCUACGAGCUUUUUGCUCGUCUUAUAAUUCUCGG [Mat - Sensor v3 - turn-off var 1 - JL Mod - D28] (puzzle: Sensor v3, turn-off variant 1)				0.0655	0.0242	
CCGAUAAUGUAGGAUAUCGUAUCGGAGACGAUACGAGAAGGACAAACAUGAGGAUCACCCAUGUUCCUUAACGG [Mat - Exclusion 6 - Eli Mod - D74] (puzzle: Exclusion 6)				0.0135		
CCGCGACAUGAGGAUCACCCAUGUUAGGAUAUGUGCGCCAACCAAGGAAUUGGUAGGUACAGAAGGAGCUGGGU [Eternabot (L2) Solution 97] (Eterna round: R97, puzzle: Exclusion 1)	0.149		0.0563			
CCGCGUACAGGAUAUCCAUCUGGAUCAGACAAGAUCCUGAUGGAGAAGGGACAUGAGGAUCACCCAUGUUGCGG [Mat - Exclusion 4 - Eli Mod - D54] (Eterna round: R97, puzzle: Exclusion 4)	0.019		0.0193			
CCGCUACAUGAGGAUCACCCAUGUCAGGAUAUCGUACGUUCGUCGAAAGACGAUCGUACGAGAAGGGUGUGCGG [Eli x1 4.37] (Eterna round: R97, puzzle: Exclusion 1)	0.169		0.155			
CCGCUCCGUGUAGGAUAUCGGCGUGCCCUGCGCCGAGAAGGACAUGAGGAUCACCCAUGUAUGUUAUUAUCACGCGUGGCGCAC [Design 75] (Eterna round: R96, puzzle: Exclusion NG 1)	0.0187	0.015	0.0199			
CCGCUGUCAGGAUAUCGUGCAUACAACGAAAGUUCUAUGUGCGAGAAGGGACAUGAGGAUCACCCAUGUUUGCG [Omei Ex4 A20] (Eterna round: R97, puzzle: Exclusion 4)	0.0413		0.0282			
